Test results reported in PMC7382241 (2020).
Where “and” joins values, the source holds several entries; their conditions need not be identical. Equal values may be shown once.

Target: N-terminal AVI-tagged and biotinylated FKBP12 (human, UniProt P62942 1-108, biotin (biotinylated AVI tag))
Assay: SPR

Sequence of N-terminal AVI-tagged and biotinylated FKBP12 (P62942 whole entry): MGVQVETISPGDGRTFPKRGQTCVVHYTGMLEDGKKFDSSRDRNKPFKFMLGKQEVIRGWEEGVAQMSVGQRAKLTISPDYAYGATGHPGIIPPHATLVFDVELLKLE

Kd	Binder
32.5 nM and 32.7 nM and 41.2 nM	CEP250_(11.4) (residues 2,134 to 2,231) (domain or fragment) MEEQSLKLDSLEPRLQRELERLQAALRQTEAREIEWREKAQDLALSLAQTKASVSSLQEVAMFLQASVLERDSEQQRLQDELELTRRALEKERLHSPG
37.6 nM and 23.4 nM and 57.7 nM	recombinant CEP250_(29.2) (residues 1,981 to 2,281) (domain or fragment) EQHLLEQAELSRSLEASTATLQASLDACQAHSRQLEEALRIQEGEIQDQDLRYQEDVQQLQQALAQRDEELRHQQEREQLLEKSLAQRVQENMIQEKQNLGQEREEEEIRGLHQSVRELQLTLAQKEQEILELRETQQRNNLEALPHSHKTSPMEEQSLKLDSLEPRLQRELERLQAALRQTEAREIEWREKAQDLALSLAQTKASVSSLQEVAMFLQASVLERDSEQQRLQDELELTRRALEKERLHSPGATSTAELGSRGEQGVQLGEVSGVEAEPSPDGMEKQSWRQRLEHLQQAVAR
